From patent US20150344570A1 (published 2015)

T1: FcγRIIa R (FcγRIIa, allotype with Arg at position 131), extracellular domain with C-terminal His tag (human, UniProt P12318 34-217)
T1 construct: extracellular domain; also called FcγRIIa R type; 2aR
T1 sequence (looked up): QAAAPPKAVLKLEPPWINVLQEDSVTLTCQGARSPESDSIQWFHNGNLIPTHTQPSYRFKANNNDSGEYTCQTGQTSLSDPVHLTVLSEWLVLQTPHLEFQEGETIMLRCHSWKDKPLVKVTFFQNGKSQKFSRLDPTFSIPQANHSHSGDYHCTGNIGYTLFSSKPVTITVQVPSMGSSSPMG


target: T1, FcγRIIa R (FcγRIIa, allotype with Arg …); experiment: SPR (Biacore), antibody captured on antigen peptide chip, FcγR as analyte; relative binding
Procedure: Analysis of interaction between objective antibody and the FcγR was carried out using Biacore T100 (GE Healthcare). HBS-EP+ (GE Healthcare) was used as the running buffer, and the measurement temperature was set to 25° C. Chips produced by immobilizing the antigen peptide by the amine coupling method to a Series S Sencor Chip CM5 (GE Healthcare), or alternatively, chips produced by allowing preliminarily biotinylated antigen peptides to interact with and immobilize onto a Series S Sensor Chip SA (certified) (GE Healthcare) were used. Antibodies of interest were captured onto an antigen peptide-immobilized chip, and allowed to interact to each FcγR diluted with running buffer. To regenerate and repeatedly use the chip, the antibodies captured on the chip were washed off by reacting 10 mM glycine-HCl, pH 1.5.

| He/Con_2aR | Binder |
| --- | --- |
| 110 % of GpH7-A5/GpH7-B3/GpL16-k0 (=100) | GpH7-A5/GpH7-B3 variant P331_20W/GpL16-k0 (antibody, human IgG1, kappa, also called He Ab) heavy 1: not shown heavy 2: not shown light: DIVMTQSPLSLPVTPGEPASISCQASESLVHSNRNTYLHWYLQKPGQSPQLLIYKVSNRFSGVPDRFSGSGSGTDFTLKISRVEAEDVGVYYCSQNTHVPPTFGQGTKVEIERTVAAPSVFIFPPSDEQLKSGTASVVCLLNNFYPREAKVQWKVDNALQSGNSQESVTEQDSKDSTYSLSSTLTLSKADYEKHKVYACEVTHQGLSSPVTKSFNRGEC |
| 135 % of GpH7-A5/GpH7-B3/GpL16-k0 (=100) | GpH7-A5/GpH7-B3 variant S267_19Q/GpL16-k0 (antibody, human IgG1, kappa, also called He Ab) heavy 1: not shown heavy 2: not shown light: DIVMTQSPLSLPVTPGEPASISCQASESLVHSNRNTYLHWYLQKPGQSPQLLIYKVSNRFSGVPDRFSGSGSGTDFTLKISRVEAEDVGVYYCSQNTHVPPTFGQGTKVEIERTVAAPSVFIFPPSDEQLKSGTASVVCLLNNFYPREAKVQWKVDNALQSGNSQESVTEQDSKDSTYSLSSTLTLSKADYEKHKVYACEVTHQGLSSPVTKSFNRGEC |
| 111 % of GpH7-A5/GpH7-B3/GpL16-k0 (=100) | GpH7-A5/GpH7-B3 variant S239_18N/GpL16-k0 (antibody, human IgG1, kappa, also called He Ab) heavy 1: not shown heavy 2: not shown light: DIVMTQSPLSLPVTPGEPASISCQASESLVHSNRNTYLHWYLQKPGQSPQLLIYKVSNRFSGVPDRFSGSGSGTDFTLKISRVEAEDVGVYYCSQNTHVPPTFGQGTKVEIERTVAAPSVFIFPPSDEQLKSGTASVVCLLNNFYPREAKVQWKVDNALQSGNSQESVTEQDSKDSTYSLSSTLTLSKADYEKHKVYACEVTHQGLSSPVTKSFNRGEC |
| 116 % of GpH7-A5/GpH7-B3/GpL16-k0 (=100) | GpH7-A5/GpH7-B3 variant S267_03V/GpL16-k0 (antibody, human IgG1, kappa, also called He Ab) heavy 1: not shown heavy 2: not shown light: DIVMTQSPLSLPVTPGEPASISCQASESLVHSNRNTYLHWYLQKPGQSPQLLIYKVSNRFSGVPDRFSGSGSGTDFTLKISRVEAEDVGVYYCSQNTHVPPTFGQGTKVEIERTVAAPSVFIFPPSDEQLKSGTASVVCLLNNFYPREAKVQWKVDNALQSGNSQESVTEQDSKDSTYSLSSTLTLSKADYEKHKVYACEVTHQGLSSPVTKSFNRGEC |

More lines, now with the values behind:

| Binder | He/Con_2aR |
| --- | --- |
| GpH7-A5/GpH7-B3 variant Q295_06M/GpL16-k0 (antibody, human IgG1, kappa, also called He Ab) heavy 1: not shown heavy 2: not shown light: DIVMTQSPLSLPVTPGEPASISCQASESLVHSNRNTYLHWYLQKPGQSPQLLIYKVSNRFSGVPDRFSGSGSGTDFTLKISRVEAEDVGVYYCSQNTHVPPTFGQGTKVEIERTVAAPSVFIFPPSDEQLKSGTASVVCLLNNFYPREAKVQWKVDNALQSGNSQESVTEQDSKDSTYSLSSTLTLSKADYEKHKVYACEVTHQGLSSPVTKSFNRGEC | 102 % of GpH7-A5/GpH7-B3/GpL16-k0 (=100) |
| GpH7-A5/GpH7-B3 variant S239_10E/GpL16-k0 (antibody, human IgG1, kappa, also called He Ab) heavy 1: not shown heavy 2: not shown light: DIVMTQSPLSLPVTPGEPASISCQASESLVHSNRNTYLHWYLQKPGQSPQLLIYKVSNRFSGVPDRFSGSGSGTDFTLKISRVEAEDVGVYYCSQNTHVPPTFGQGTKVEIERTVAAPSVFIFPPSDEQLKSGTASVVCLLNNFYPREAKVQWKVDNALQSGNSQESVTEQDSKDSTYSLSSTLTLSKADYEKHKVYACEVTHQGLSSPVTKSFNRGEC | 135 % of GpH7-A5/GpH7-B3/GpL16-k0 (=100) |
| GpH7-A5/GpH7-B3 variant S239_08L/GpL16-k0 (antibody, human IgG1, kappa, also called He Ab) heavy 1: not shown heavy 2: not shown light: DIVMTQSPLSLPVTPGEPASISCQASESLVHSNRNTYLHWYLQKPGQSPQLLIYKVSNRFSGVPDRFSGSGSGTDFTLKISRVEAEDVGVYYCSQNTHVPPTFGQGTKVEIERTVAAPSVFIFPPSDEQLKSGTASVVCLLNNFYPREAKVQWKVDNALQSGNSQESVTEQDSKDSTYSLSSTLTLSKADYEKHKVYACEVTHQGLSSPVTKSFNRGEC | 122 % of GpH7-A5/GpH7-B3/GpL16-k0 (=100) |
| GpH7-A5/GpH7-B3 variant S337_03V/GpL16-k0 (antibody, human IgG1, kappa, also called He Ab) heavy 1: not shown heavy 2: not shown light: DIVMTQSPLSLPVTPGEPASISCQASESLVHSNRNTYLHWYLQKPGQSPQLLIYKVSNRFSGVPDRFSGSGSGTDFTLKISRVEAEDVGVYYCSQNTHVPPTFGQGTKVEIERTVAAPSVFIFPPSDEQLKSGTASVVCLLNNFYPREAKVQWKVDNALQSGNSQESVTEQDSKDSTYSLSSTLTLSKADYEKHKVYACEVTHQGLSSPVTKSFNRGEC | 106 % of GpH7-A5/GpH7-B3/GpL16-k0 (=100) |
| GpH7-A5/GpH7-B3 variant S324_06M/GpL16-k0 (antibody, human IgG1, kappa, also called He Ab) heavy 1: not shown heavy 2: not shown light: DIVMTQSPLSLPVTPGEPASISCQASESLVHSNRNTYLHWYLQKPGQSPQLLIYKVSNRFSGVPDRFSGSGSGTDFTLKISRVEAEDVGVYYCSQNTHVPPTFGQGTKVEIERTVAAPSVFIFPPSDEQLKSGTASVVCLLNNFYPREAKVQWKVDNALQSGNSQESVTEQDSKDSTYSLSSTLTLSKADYEKHKVYACEVTHQGLSSPVTKSFNRGEC | 123 % of GpH7-A5/GpH7-B3/GpL16-k0 (=100) |
| GpH7-A5/GpH7-B3 variant S267_09D/GpL16-k0 (antibody, human IgG1, kappa, also called He Ab) heavy 1: not shown heavy 2: not shown light: DIVMTQSPLSLPVTPGEPASISCQASESLVHSNRNTYLHWYLQKPGQSPQLLIYKVSNRFSGVPDRFSGSGSGTDFTLKISRVEAEDVGVYYCSQNTHVPPTFGQGTKVEIERTVAAPSVFIFPPSDEQLKSGTASVVCLLNNFYPREAKVQWKVDNALQSGNSQESVTEQDSKDSTYSLSSTLTLSKADYEKHKVYACEVTHQGLSSPVTKSFNRGEC | 173 % of GpH7-A5/GpH7-B3/GpL16-k0 (=100) |
| GpH7-A5/GpH7-B3 variant S239_07I/GpL16-k0 (antibody, human IgG1, kappa, also called He Ab) heavy 1: not shown heavy 2: not shown light: DIVMTQSPLSLPVTPGEPASISCQASESLVHSNRNTYLHWYLQKPGQSPQLLIYKVSNRFSGVPDRFSGSGSGTDFTLKISRVEAEDVGVYYCSQNTHVPPTFGQGTKVEIERTVAAPSVFIFPPSDEQLKSGTASVVCLLNNFYPREAKVQWKVDNALQSGNSQESVTEQDSKDSTYSLSSTLTLSKADYEKHKVYACEVTHQGLSSPVTKSFNRGEC | 102 % of GpH7-A5/GpH7-B3/GpL16-k0 (=100) |
